Results taken from publication PMC5709234.
“And” between values parts separate entries of the source, which are not always exact repeats. Equal values may be shown once. Read-outs that look alike come from different tables or passages of the source.

Tests used:
Assay in all cases: native MS
[1] = target: Truncated alcohol dehydrogenase 1 (S. cerevisiae) (S. cerevisiae)
[2] = target: Trastuzumab light chain, dissociated from the mAb
[3] = target: Alcohol dehydrogenase 1 (S. cerevisiae) (S. cerevisiae) (UniProt P00330)
[4] = target: Alcohol dehydrogenase 1 (S. cerevisiae) (S. cerevisiae) (UniProt P00330); remark: listed apart in the source

Sequence of Truncated alcohol dehydrogenase 1 (S. cerevisiae) (domain or fragment) (P00330 2-348): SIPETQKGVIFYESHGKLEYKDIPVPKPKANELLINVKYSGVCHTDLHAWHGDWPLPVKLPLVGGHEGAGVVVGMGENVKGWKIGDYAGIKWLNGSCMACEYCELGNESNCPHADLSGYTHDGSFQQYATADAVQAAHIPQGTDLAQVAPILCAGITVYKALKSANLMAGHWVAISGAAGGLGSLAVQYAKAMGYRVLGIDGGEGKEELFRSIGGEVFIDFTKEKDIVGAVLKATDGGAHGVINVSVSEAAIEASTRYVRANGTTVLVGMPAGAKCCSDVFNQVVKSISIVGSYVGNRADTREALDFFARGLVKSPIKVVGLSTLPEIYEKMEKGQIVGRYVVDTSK

Q: How did the stoichiometry N [1] turn out when “Truncated alcohol dehydrogenase 1 (S. cerevisiae) (domain or fragment)” was run?
A: 4

Q: For “Trastuzumab light chain, dissociated from the mAb (domain or fragment)”, which stoichiometry N [2] is on record?
A: 2

Q: Which results are given for “Alcohol dehydrogenase 1 (S. cerevisiae) (from UniProt P00330 2-348) (enzyme)”?
A: percent detected as homotetramer [3]: 92%; stoichiometry N [3]: 4; stoichiometry N [4]: 2 and 4
